Publication PMC12167484, “Specific phosphoinositide interaction of Jps1 is a key feature during unconventional secretion in Ustilago maydis” (The Journal of Biological Chemistry, 2025)
pKd: −log10 of the molar value.

Assays:
[1] = target: Ustilago maydis Jps1^1-484 (lacking the unstructured C-terminus) (Ustilago maydis); assay: SAXS; P12 beamline, batch mode, 10 °C, 0.6 mg/ml purified Jps1^1-484; rigid body modeling of the dimer with CORAL
[2] = target: Ustilago maydis Jps1^1-484 (lacking the unstructured C-terminus) (Ustilago maydis); assay: SEC-MALS; after SEC purification the sample was applied to a Superdex 200 10/30 column coupled to a miniDAWN TREOS light scattering detector and a refractive index detector; monomer to dimer
[3] = target: T1, HcJps1 (Hebeloma cylindrosporum, UniProt A0A0C3CFZ0); assay: surface plasmon resonance, immobilised liposomes, steady-state affinity; assay type: binding; conditions: DOPC/PI(4,5)P2 liposomes (1 mM lipid) on LP chip, DOPC reference; 20 mM Hepes pH 7.5, 20 mM KCl, 200 mM NaCl; 0.2-6.4 μM protein
T1 construct: gene M413DRAFT_206302; full length, 287 residues; 6xHis-GB1 fusion made in E. coli (GB1 tag cleaved with TEV before SEC; codon-optimised gene for U. maydis)
T1 sequence (A0A0C3CFZ0 1-287): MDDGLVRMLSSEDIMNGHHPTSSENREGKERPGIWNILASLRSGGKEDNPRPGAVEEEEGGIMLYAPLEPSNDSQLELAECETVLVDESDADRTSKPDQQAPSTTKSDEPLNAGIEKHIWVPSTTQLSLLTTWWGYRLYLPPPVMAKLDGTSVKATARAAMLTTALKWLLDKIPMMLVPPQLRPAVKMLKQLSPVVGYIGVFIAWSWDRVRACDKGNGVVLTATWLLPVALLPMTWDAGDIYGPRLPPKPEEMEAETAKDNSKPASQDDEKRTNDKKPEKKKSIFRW

[4] = target: T2, UmJps1 (Jps1^1-609) (Mycosarcoma maydis, UniProt A0A0D1C3B2); assay: liposome co-sedimentation, SDS-PAGE; assay type: binding; conditions: DOPC:cholesterol:PIP 80:15:5 (with cholesterol); protein:lipid 1:5000; pH 7.5, room temperature
T2 construct: gene UMAG_03776; full length, 609 residues; 6xHis-Jps1 made in E. coli Rosetta(DE3) pLyS (pET22b, C-terminal His-tag in strip assay); homodimer 134 kDa
T2 sequence (A0A0D1C3B2 1-609): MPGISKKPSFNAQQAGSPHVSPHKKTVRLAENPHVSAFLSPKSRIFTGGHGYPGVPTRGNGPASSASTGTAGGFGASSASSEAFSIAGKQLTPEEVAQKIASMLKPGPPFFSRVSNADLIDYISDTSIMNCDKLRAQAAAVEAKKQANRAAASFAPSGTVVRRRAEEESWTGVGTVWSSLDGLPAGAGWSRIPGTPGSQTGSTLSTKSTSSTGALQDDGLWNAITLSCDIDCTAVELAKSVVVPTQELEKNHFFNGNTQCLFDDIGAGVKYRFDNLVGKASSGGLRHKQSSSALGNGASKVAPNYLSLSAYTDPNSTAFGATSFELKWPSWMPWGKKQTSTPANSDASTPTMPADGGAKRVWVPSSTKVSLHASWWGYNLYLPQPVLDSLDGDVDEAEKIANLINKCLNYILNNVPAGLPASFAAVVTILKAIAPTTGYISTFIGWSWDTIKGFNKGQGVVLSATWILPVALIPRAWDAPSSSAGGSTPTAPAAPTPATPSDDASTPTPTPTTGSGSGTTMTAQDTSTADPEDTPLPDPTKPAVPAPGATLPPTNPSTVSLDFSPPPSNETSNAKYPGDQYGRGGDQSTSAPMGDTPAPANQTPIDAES

[5] = target: T3, Cts1 (Mycosarcoma maydis, UniProt A0A0D1DVM8); assay: fluorogenic chitinase assay, intact cells or native extract; assay type: cell-based; conditions: KHM buffer (110 mM potassium acetate, 20 mM Hepes, 2 mM MgCl2), 25 °C
T3 construct: gene UMAG_10419; native Cts1, extracellular on intact U. maydis AB33 cells or in native cell extracts
T3 sequence (A0A0D1DVM8 1-502): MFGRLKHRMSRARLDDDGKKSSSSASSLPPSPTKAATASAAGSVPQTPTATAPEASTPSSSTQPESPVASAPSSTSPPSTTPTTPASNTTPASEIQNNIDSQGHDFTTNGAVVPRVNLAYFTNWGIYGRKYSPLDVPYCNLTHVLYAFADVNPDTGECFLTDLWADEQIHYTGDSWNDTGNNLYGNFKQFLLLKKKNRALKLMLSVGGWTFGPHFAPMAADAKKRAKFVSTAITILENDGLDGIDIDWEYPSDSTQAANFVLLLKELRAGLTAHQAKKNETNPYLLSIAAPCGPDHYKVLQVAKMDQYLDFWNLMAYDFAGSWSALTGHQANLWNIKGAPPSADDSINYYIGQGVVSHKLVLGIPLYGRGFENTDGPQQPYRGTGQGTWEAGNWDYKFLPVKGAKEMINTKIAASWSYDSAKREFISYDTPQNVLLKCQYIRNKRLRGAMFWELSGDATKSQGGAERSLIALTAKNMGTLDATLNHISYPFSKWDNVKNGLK

[6] = target: Ustilago maydis Jps1, full-length recombinant (Jps1^1-609) (Ustilago maydis); assay: mass photometry; TwoMP mass photometer, protein at 10 nM in Hepes buffer, room temperature; monomer to dimer
[7] = target: Ustilago maydis Jps1, full-length recombinant (Jps1^1-609) (Ustilago maydis); assay: SEC-MALS; after SEC purification the sample was applied to a Superdex 200 10/30 column coupled to a miniDAWN TREOS light scattering detector and a refractive index detector; monomer to dimer
[8] = target: Sporisorium reilianum Jps1, full-length recombinant (Sporisorium reilianum); assay: mass photometry; TwoMP mass photometer, protein at 10 nM in Hepes buffer, room temperature; monomer to dimer
[9] = target: Sporisorium reilianum Jps1, full-length recombinant (Sporisorium reilianum); assay: SEC-MALS; after SEC purification the sample was applied to a Superdex 200 10/30 column coupled to a miniDAWN TREOS light scattering detector and a refractive index detector; monomer to dimer
[10] = target: Hebeloma cylindrosporum Jps1, full-length recombinant (Hebeloma cylindrosporum); assay: as above

For “Ustilago maydis Jps1^1-484 (lacking the unstructured C-terminus) (domain or fragment)”, the stoichiometry N [1] was 2 and the stoichiometry N [2] was 2.

PI(4,5)P2 was tested, and the pKd [3] was 6.05 and the “% of input protein bound” value [4] was ~ 50%.

With CC(=O)N[C@H]1[C@H](Oc2ccc3c(C)cc(=O)oc3c2)O[C@H](CO)[C@@H](O[C@@H]2O[C@H](CO)[C@@H](O[C@@H]3O[C@H](CO)[C@@H](O)[C@H](O)[C@H]3NC(C)=O)[C@H](O)[C@H]2NC(C)=O)[C@@H]1O [MUC, 4-methylumbelliferyl-β-D-N, N′, N’’-triacetylchitotrioside] the “fluorogenic chitinase assay, intact cells or native extract” value [5] was “MUC, a fluorogenic substrate 4-methylumbelliferyl-β-D-N, N′, N’’-triacetylchitotrioside”.

In the case of “Ustilago maydis Jps1, full-length recombinant (Jps1^1-609) (natural protein)”, the percent of particles in the dimer fraction [6] was 69%, the stoichiometry N [6] was 2 and the stoichiometry N [7] was 2.

With “Sporisorium reilianum Jps1, full-length recombinant (natural protein)” the stoichiometry N [8] was 2 and the stoichiometry N [9] was 2.

“Hebeloma cylindrosporum Jps1, full-length recombinant (natural protein)” was tested, and the stoichiometry N [10] was 2.
